Tests used:
HA-PP4c = target: T1, HA-PP4c (Mus musculus, UniProt P97470); experiment: Immunoblotting of anti-HA immunoprecipitates of NIH3T3 cells, PP4c; format: binding
T1 construct: expressed in transfected cells; host or cells: NIH3T3 mouse fibroblasts, retroviral pBabe hygro HA-PP4c
T1 sequence (P97470 1-307): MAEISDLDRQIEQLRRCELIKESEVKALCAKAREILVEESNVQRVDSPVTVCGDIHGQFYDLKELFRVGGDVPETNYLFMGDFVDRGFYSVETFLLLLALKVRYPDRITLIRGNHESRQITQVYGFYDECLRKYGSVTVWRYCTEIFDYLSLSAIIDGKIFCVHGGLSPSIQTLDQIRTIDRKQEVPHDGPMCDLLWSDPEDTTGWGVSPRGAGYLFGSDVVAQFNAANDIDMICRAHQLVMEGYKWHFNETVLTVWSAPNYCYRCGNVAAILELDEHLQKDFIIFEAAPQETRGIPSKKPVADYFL
Text: The catalytic subunits of protein phosphatase 4 (PP4c) and 6 (PP6c) are closely related to PP2Ac with approximately 50% sequence identity. PP2Ac, PP4c and PP6c share the C-terminal DYFL or YFL motif, respectively (FIG. 8A). Therefore, a potential cross-reactivity of 7C10-C5 with α-carboxymethylated PP4c and/or PP6c was examined and compared to another anti-carboxymethyl-PP2Ac antibody 2A10. 2A10 is a carboxymethyl-PP2Ac specific antibody that has been raised against a larger C-terminal PP2Ac peptide (amino acids 302-309, carboxymethylated Leu^309) and that has been shown before to cross-react with α-carboxymethylated PP4c (Lee (2014), Biochem Biophys Res Commun 452, 42-47). HA tagged human PP2Ac a, mouse HA PP4c or mouse HA PP6c from NIH3T3 mouse fibroblasts stably expressing these HA-tagged proteins were immunoprecipitated. The precipitated proteins were then analyzed by immunoblotting with anti-carboxymethyl-PP2Ac antibodies 7C10-C5 or 2A10.
Specifically, 500 μl corresponding to 1 mg of whole cell protein lysates of NIH3T3 mouse fibroblasts were incubated with anti-hemagglutinin (HA) antibody (clone 12CA5) crosslinked to BSA-coated protein A-Sepharose beads (GE-Healthcare) to immunoprecipitate HA-epitope tagged PP2Ac, PP4c or PP6c for 1 h. […]

[1] = target: T2, non-carboxymethylated PP2Ac (ac-[…]-OH) (Homo sapiens, UniProt P67775); experiment: Surface plasmon resonance (Biacore T200), non-carboxymethylated PP2Ac peptide; format: binding; conditions: SPR
T2 construct: The following 11-mer peptides corresponding to the carboxymethylated or non-methylated carboxy-terminus of PP2A and PP4 catalytic subunits were used as antigens
Experimental: The differential affinity of anti-carboxymethylated PP2Ac antibodies, 7C10-C5 and 2A10, to carboxymethylated PP2A catalytic subunit versus noncarboxymethylated PP2A catalytic subunit was determined by surface plasmon resonance (SPR) on a Biacore T200 (GE Healthcare) at the Core Facility Biomolecular & Cellular Analysis (University of Natural Resources and Life Sciences Vienna BOKU). The affinity of 7C10-C5 for carboxymethylated and noncarboxymethylated catalytic subunit of PP4 (PP4c), a PP2A-related phosphatase, was also determined. […] The KD of the binding of 7C10-C5 (or 2A10) to non-carboxymethylated PP2Ac or PP4c could not be determined because at the highest analyte sample concentration (5000 nM) only very weak binding signals were detected indicating KD values of at least >5000 nM or higher. […]
SPR experiments were performed with the BiacoreT200 instrument (Cytiva). […] The sensorgrams obtained were analyzed with BiacoreT200 Evaluation Software (version 3.1). […]

B1: 7C10-C5: α-carboxymethylation specific mouse monoclonal IgG1 antibody from single clone hybridoma 7C10-C5 (DSM ACC3350) (antibody)
heavy: MYRMQLLSCIALSLALVTNSDVQLQESGPGLVKPSQSLSLTCSVTGYSITSGYYWNWIRQFPGNKLEWMGYISYDGSNNYNPSLKNRISITRDTSKNQFFLKLNSVTTEDTATYYCAGRFAYWGQGTLVTVSAAKTTAPSVYPLAPVCGDTTGSSVTLGCLVKGYFPEPVTLTWNSGSLSSGVHTFPAVLQSDLYTLSSSVTVTSSTWPSQSITCNVAHPASSTKVDKKIEPRGPTIKPCPPCKCPAPNLLGGPSVFIFPPKIKDVLMISLSPIVTCVVVDVSEDDPDVQISWFVNNVEVHTAQTQTHREDYNSTLRVVSALPIQHQDWMSGKEFKCKVNNKDLPAPIERTISKPKGSVRAPQVYVLPPPEEEMTKKQVTLTCMVTDFMPEDIYVEWTNNGKTELNYKNTEPVLDSDGSYFMYSKLRVEKKNWVERNSYSCSVVHEGLHNHHTTKSFSRTPGK
light: MDMRVPAQLLGLLLLWLSGARCDVLMTQTPLSLPVSLGDQASISCRSSQSIVHSNGNTYLEWYLQKPGQSPKLLIYKVSNRFSGVPDRFSGSGSGTDFTLKINRVEAEDLGVYYCFQGSHVPWTFGGGTKLEIKADAAPTVSIFPPSSEQLTSGGASVVCFLNNFYPKDINVKWKIDGSERQNGVLNSWTDQDSKDSTYSMSSTLTLTKDEYERHNSYTCEATHKTSTSPIVKSFNRNEC
modifications: Amino acid sequence of the recombinant 7C10-C5 heavy chain; Amino acid sequence of the recombinant 7C10-C5 light chain
detection of PP4c (HA-PP4c; Western blot of HA immunoprecipitates): did not detect
binding to carboxymethylated PP2Ac stronger than to carboxymethylated PP4c (HA-PP4c; Western blot, suggested since no discernable signal): 100-fold or even 500-fold
binding to carboxymethylated PP2Ac stronger than to non-carboxymethylated PP2Ac [1]: at least 400 fold
binding to non-carboxymethylated PP2Ac [1]: does not bind to non-carboxymethylated PP2Ac to a measureable extent

— patent US20230121197A1, “ANTIBODIES SPECIFICALLY BINDING THE CARBOXYMETHYLATED CATALYTIC SUBUNIT OF PROTEIN PHOSPHATASE 2A” (Medizinische Universität Wien, priority 2020, published 2023)
